Columns and labels:
Experiment in all cases: SEC
[1] = target: repaired and stabilized HA of H3N2 A/Singapore/INFIMH/16/0019/2016 (P194L in HA1) (influenza A virus H3N2 A/Singapore/INFIMH/16/0019/2016)
[2] = target: HA ectodomain of H1N1 A/California/07/2009 with K51I + E103I (influenza A virus H1N1 A/California/07/2009)
[3] = target: repaired and stabilized HA of H3N2 A/Brisbane/10/2007 (P194L in HA1) (influenza A virus H3N2 A/Brisbane/10/2007)

Question: For “repaired and stabilized HA of H3N2 A/Singapore/INFIMH/16/0019/2016 (P194L in HA1) (domain or fragment)”, which stoichiometry N [1] is on record?
Answer: 3

Question: How did the stoichiometry N [2] turn out when “HA ectodomain of H1N1 A/California/07/2009 with K51I + E103I (domain or fragment)” was run?
Answer: 3

Question: How did the stoichiometry N [3] turn out when “repaired and stabilized HA of H3N2 A/Brisbane/10/2007 (P194L in HA1) (domain or fragment)” was run?
Answer: 3
